Source: US7329737 (DYAX, dated 2008)
Substitutions are numbered along the chain they refer to.

B1: M0132-H11 (Fab, V domains shown)
VH: EVQLLESGGGLVQPGGSLRLSCAASGFTFSHYQMHWVRQAPGKGLEWVSRIRSSGGATSYADSVKGRFTISRDNSKNTLYLQMNSLRAEDTAVYYCARGGGYSYYFDYWGQGTLVTVSS
VL: AQYELTQPPSASGTPGQRVTISCSGSSSNIGSNYVYWYQQLPGTAPKLLIYRNNQRPSGVPDRFSGSKSGTSASLAISGLRSEDEADYYCAAWDDSLSGHAVFGGGTQLTVLG
B2: M0097-F04 (Fab, V domains shown)
VH: EVQLLESGGGLVQPGGSLRLSCAASGFTFSPYQMWWVRQAPGKGLEWVSSISSSGGLTRYADSVKGRFTISRDNSKNTLYLQMNSLRAEDMAVYYCARVKLNYYGSGSYSLDAFDIWGQGTNGHRLKRLHQGPIGLPASTLLQEH
VL: AQYELTQPPSASGTPGQRVTISCSGSSSNIGSNYVHWYQQLPGTAPKLLIYRNNRRPSGVPDRFSGSKSGTSASLAISGLRSEDEADYYCAAWDDSLSGLVVFGGGTKLTVLGQPKAAP
B3: M0104-H12 (Fab, V domains shown)
VH: EVQLLESGGGLVQPGGSLRLSCAASGFTFSYYQMSWVRQAPGKGLEWVSRIGPSGGLTSYADSVKGRFTISRDNSKNTLYLQMNSLRAEDTAVYYCARVGVWYGMDVWGQGTLVTVSS
VL: AQSELTQPPSASGSPGQSVTISCTGTSSDVGAYNYVSWYQQHPGKAPKLIIYEVNKRPSGVPDRFSASKSGNTASLTVSGLQAEDEADYYCNSYAGSNSLIFGGGTKLTVLG
B4: M0135-F03 (Fab, V domains shown)
VH: B3 VH with Y31H, Q33V, S35I, R50W, G52Y, L57N, S59I, V93T, L113T
VL: DIQMTQSPATLSLSPGERATLSCRASQSVSSYLAWYQQKPGQAPRLLIYDASNRATGIPARFSGSGSGTDFTLTISSLEPEDFAVYYCQQRSNWPSPIAFGQGTRLEIKR
B5: M0139-F09 (Fab, V domains shown)
VH: B3 VH with Y31H, Q33V, S35A, L57Y, S59M, L113T
VL: DIQMTQSPGTLSLSPGERATLSCRASQSVSSSYLAWYQQKPGQAPRLLIYGASSRATGIPDRFSGSGSGTDFTLTISSLQLEDFGTYFCQQSYRSPYTFGQGTKVDIKR
B6: M0135-B05 (Fab, V domains shown)
VH: B3 VH with Y31H, Q33L, S35D, R50V, G52Y, L57H, S59N, L113T
VL: DIQMTQSPSSLSASVGDRVTITCRASQSISTYLNWYQQKPGKAPNLLIYAASSLQSGVPSRFSGSGSGTDFTLTVSSLQPEDFGTYYCQQYNSFPFSFGQGTRLEINR
B7: M0111-C10 (Fab, V domains shown)
VH: B3 VH with Y31R, Q33V, R50S, G52R, P53S, L57R, S59M, L113T
VL: DIQMTQSPSSLSASVGDRVTITCRASQSISSYLNWYQQKPEKAPQLLIFAASSLQSGVPSRFSGSGSGTDFTLTISSLQPEDFATYYCQQSYNAPWTFGQGTKVEIRR
B8: M0121-A07 (Fab, V domains shown)
VH: EVQLLESGGGLVQPGGSLRLSCAASGFTFSHYLMYWVRQAPGKGLEWVSRIYPSGGATSYADSVKGRFTISRDNSKNTLYLQMNSLRAEDTAVYYCAKSGSWYSFDYWGQGTLVTVSS
VL: B5 VL with S32N, I49M, S54Y, L81P, G85A, F88Y, R94S, S95T, Y97W, D106E
B9: M0138-B10 (Fab, V domains shown)
VH: EVQLLESGGGLVQPGGSLRLSCAASGFTFSHYSMTWVRQAPGKGLEWVSRIYPSGGRTGYADSVKGRFTISRDNSKNTLYLQMNSLRAEDTAVYYCATDSGGYYYGMDVWGQGTTVTVSS
VL: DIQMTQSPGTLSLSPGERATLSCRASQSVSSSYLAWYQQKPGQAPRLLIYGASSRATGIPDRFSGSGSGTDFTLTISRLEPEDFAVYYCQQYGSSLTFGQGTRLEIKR
B10: M0132-D08 (Fab, V domains shown)
VH: EVQLLESGGGLVQPGGSLRLSCAASGFTFSHYLMYWVRQAPGKGLEWVSWIGPSGGHTMYADSVKGRFTISRDNSKNTLYLQMNSLRAEDTAVYYCARLQQGLDYWGQGTLVTVSS
VL: DIQMTQSPSTLSASVGDRVTITCRASQSISNWLAWYQQKPGKAPKLLIYMASTLESGVPSRFSGSGSGTEFTLTISSLQPADFATYYCQQYNSYSVTFGGGTKVEIKR
B11: M0126-F11 (Fab, V domains shown)
VH: B10 VH with L33W, Y35M, P53S, H57F, M59W, L99G, Q100N, Q101G, L103F, Y105S
VL: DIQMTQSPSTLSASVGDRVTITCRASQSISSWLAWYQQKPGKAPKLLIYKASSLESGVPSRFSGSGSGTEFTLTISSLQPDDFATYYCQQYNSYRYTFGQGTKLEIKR
B12: M0128-E07 (Fab, V domains shown)
VH: EVQLLESGGGLVQPGGSLRLSCAASGFTFSFYPMSWVRQAPGKGLEWVSYIWPSGGATRYADSVKGRFTISRDNSKNTLYLQMNSLRAEDTAVYYCARGNGGFDSWGQGTLVTVSS
VL: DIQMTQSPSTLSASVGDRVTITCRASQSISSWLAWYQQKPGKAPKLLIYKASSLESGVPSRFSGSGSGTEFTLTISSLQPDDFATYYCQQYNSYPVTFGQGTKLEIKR
B13: M0094-E08 (Fab, V domains shown)
VH: EVQLLESGGGLVQPGGSLRLSCAASGFTFSFYAMVWVRQAPGKGLEWVSYISPSGGATWYADSVKGRFTISRDNSKNTLYLQMNSLRAEDTAVYYCAKPSRPRYYYDSSGYYSSAFDIWGQGTMVTVSS
VL: AQSVLTQPASVSGSPGQSITISCTGTSSDVGAYNYVSWYQQHPGKVPELMIYDVSNRPSGVSHRFSGSKSGNTASLTISGLQAEDDADYYCSSFTSRKTWVFGTGTKVTVLG
B14: M0136-F08 (Fab, V domains shown)
VH: EVQLLESGGGLVQPGGSLRLSCAASGFTFSHYKMGWVRQAPGKGLEWVSSIRPSGGATKYADSVKGRFTISRDNSKNTLYLQMNSLRAEDTAVYYCARVGIWDAFDIWGQGAMVTVSS
VL: DIQMTQSPGTLSLSPGERATLSCRASQSVSSSYLAWYQQKPGQAPRLLIYDASNRATGIPARFSGSGSGTDFTLTISSLEPEDFAVYYCQQWDTFGQGTKLEIKR
B15: M0135-C12 (Fab, V domains shown)
VH: EVQLLESGGGLVQPGGSLRLSCAASGFTFSRYHMSWVRQAPGKGLEWVSSIRPSGGSTIYADSVKGRFTISRDNSKNTLYLQMNSLRAEDTAVYYCAREPRRYYYDSSGSYDAFDIWGQGTMVTVSS
VL: AQSELTQPPSMSGTPGQRVIISCSGSNSNIGNNFVYWYQQVAGSAPKLLIFRNNQRPSGVPDRFTVSKSGASASLAIGGLRSEDEADYYCAAWDDSLSGVLFGGGTKVTVLG
B16: M0093-C02 (Fab, V domains shown)
VH: EVQLLESGGGLVQPGGSLRLSCAASGFTFSWYAMHWVRQAPGKGLEWVSWISPSGGQTKYADSVKGRFTISRDNSKNTLYLQMNSLRAEDTAVYYCARAKVLRYFDWLLGGDAFDIWGQGTMVTVSS
VL: DIQMTQSPGTLSLSPGDRATLSCRASQSVGSDYLAWYQQKPGQAPRLLIFAASTRATGIPDRFSGSGSATDFTLTISSLEPEDFAVYFCQQYASPPRTFGQGTKVEIKR
B17: M0098-H04 (Fab, V domains shown)
VH: B12 VH with F31H, P33V, Y50R, W52Y, A57Q, R59Y, N100A, G102W, S105P
VL: AQSELTQPPSASGSPGQSLTISCTGGRRDIGNYNYVSWYQQHPGKAPRLIIYDVRKRPSGVPDRFSGSKSGNVAFLTVSGLQTDDEADYYCGSYTGTSNVFGSGTTVTVLG
B18: M0131-G03 (Fab, V domains shown)
VH: EVQLLESGGGLVQPGGSLRLSCAASGFTFSHYVMQWVRQAPGKGLEWVSSIYPSGGSTRYADSVKGRFTISRDNSKNTLYLQMNSLRAEDTAMYYCARFNVGFDLWGRGTLVTVSS
VL: B17 VL
B19: M0132-D02 (Fab, V domains shown)
VH: EVQLLESGGGLVQPGGSLRLSCAASGFTFSHYPMDWVRQAPGKGLEWVSYIGPSGGSTRYADSVKGRFTISRDNSKNTLYLQMNSLRAEDTAVYYCARHVPPGTWGQGTLVTVSS
VL: AQSALTQPRSVSGSPGQSVTISCTGTSSDVNYVSWYQQHPGKAPKLMIYAVTKRPSGVPDRFSGSKSGNTASLTVSGLQAEDEADYYCSSYAGSNNLVFGGGTKLTVLG
B20: M0104-A12 (Fab, V domains shown)
VH: EVQLLESGGGLVQPGGSLRLSCAASGFTFSHYNMGWVRQAPGKGLEWVSRIGSSGGKTAYADSVKGRFTISRDNSKNTLYLQMNSLRAEDTAVYYCAKTNYDFWSGYLPNPNPYPLDYWGQGTLVTVSS
VL: DIQMTQSPSSLSASVGDRVTITCRASQSIGASLNWYQQKPQKAPKLLIYTASNLQSGVPSRFSGSGSGTDFTLTISSLLPEDFATYYCQQNYRGRTFGQGTKLEIKR
B21: M0138-C04 (Fab, V domains shown)
VH: EVQLLESGGGLVQPGGSLRLSCAASGFTFSHYHMQWVRQAPGKGLEWVSGIRSSGGVTGYSDSVKGRFTISRDNSKNTLYLQMNSLRAEDTAVYYCAREVTMVRGVYYYYYGMDVWGQGTTVTVSS
VL: AQYELTQPASVSGSPGQSITISCTGTSSDVGAYNYVSWYQHHPGKAPKLLIYDVSNRPSGISSRFSGSKSGNTASLTISGLQAEDEADYYCSSYTSSYTWVFGGGTKLTVLS
B22: M0115-G12 (Fab, V domains shown)
VH: EVQLLESGGGLVQPGGSLRLSCAASGFTFSPYFMEWVRQAPGKGLEWVSGISSSGGNTLYADSVKGRFTISRDNSKNTLYLQMNSLRAEDTAVYYCARDRFGNYYGSGSKLQHDAFDIWGQGTMVTVSS
VL: DIQMTQSPVTLSLSPGDRATLSCRASQSVSFNLAWYQHKPGQAPRLLMFDASNRATGIPDRFSGSGSGTDFTLTIKRLEPEDFAVYYCQQYGTSPFTFGPGTNVDVKR

What follows are binders tested against T1, hK1 (human tissue kallikrein 1), recombinant (human, UniProt P06870 25-262) (assay: SPR).
T1 construct: Expressed in P. pastoris from KLK1 cDNA and purified; enzymatically active; also called KLK1; Recombinant (Pichia) Kallikrein

Kd	koff	kon	Binder
4.5 nM	0.00198 s⁻¹	440000 M⁻¹ s⁻¹	B1
3.26 nM	0.000346 s⁻¹	106000 M⁻¹ s⁻¹	B2
2.43 nM	0.00138 s⁻¹	567000 M⁻¹ s⁻¹	B3
2.66 nM	0.000625 s⁻¹	235000 M⁻¹ s⁻¹	B4
3.6 nM	0.00108 s⁻¹	301000 M⁻¹ s⁻¹	B5
5.9 nM	0.000655 s⁻¹	111000 M⁻¹ s⁻¹	B6
3.29 nM	0.00341 s⁻¹	1.04e+06 M⁻¹ s⁻¹	B7
4.75 nM	0.00438 s⁻¹	922000 M⁻¹ s⁻¹	B8
3.36 nM	0.00089 s⁻¹	265000 M⁻¹ s⁻¹	B9
4.73 nM	0.000923 s⁻¹	195000 M⁻¹ s⁻¹	B10
5.05 nM	0.00144 s⁻¹	285000 M⁻¹ s⁻¹	B11
30.4 nM	0.0147 s⁻¹	483000 M⁻¹ s⁻¹	B12
3.34 nM	0.00053 s⁻¹	159000 M⁻¹ s⁻¹	B13
5.97 nM	0.00284 s⁻¹	476000 M⁻¹ s⁻¹	B14
3.1 nM	0.000376 s⁻¹	121000 M⁻¹ s⁻¹	B15
5.72 nM	0.00103 s⁻¹	180000 M⁻¹ s⁻¹	B16
5.53 nM	0.00255 s⁻¹	461000 M⁻¹ s⁻¹	B17
7.49 nM	0.00256 s⁻¹	341000 M⁻¹ s⁻¹	B18
4.22 nM	0.00303 s⁻¹	717000 M⁻¹ s⁻¹	B19
3.66 nM	0.00246 s⁻¹	673000 M⁻¹ s⁻¹	B20
4.26 nM	0.000728 s⁻¹	171000 M⁻¹ s⁻¹	B21
5.73 nM	0.000865 s⁻¹	151000 M⁻¹ s⁻¹	B22
